In US20170088585A1:

Biological target: Aβ40 (UniProt P05067)
Assay: cell-based or functional assay

Chain of Aβ40 (P05067 672-711 limits assumed): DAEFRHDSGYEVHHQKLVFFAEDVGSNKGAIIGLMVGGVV

Substance | Inhibition at 1:1 (ThT assay, Aβ:cyclic peptide) [%] | Inhibition at 1:1/3 (ThT assay, Aβ:cyclic peptide) [%]
[lZwHsK]: Cyclo-D-leucine-L-2-aminooctanoic acid-D-tryptophan-L-histidine-D-serine-L-lysine (peptide) | 55 | 42
[lJwHsK]: Cyclo-D-leucine-L-noreucine-D-tryptophan-L-histidine-D-serine-L-lysine (peptide) | 69 | 37
